# B1: Complex III assembly factor LYRM7 (Homo sapiens), Q5U5X0 (parent)
# chain: MGRAVKVLQLFKTLHRTRQQVFKNDARALEAARIKINEEFKNNKSETSSKKIEELMKIGSDVELLLRTSVIQGIHTDHNTLKLVPRKDLLVENVPYCDAPTQKQ
# partner: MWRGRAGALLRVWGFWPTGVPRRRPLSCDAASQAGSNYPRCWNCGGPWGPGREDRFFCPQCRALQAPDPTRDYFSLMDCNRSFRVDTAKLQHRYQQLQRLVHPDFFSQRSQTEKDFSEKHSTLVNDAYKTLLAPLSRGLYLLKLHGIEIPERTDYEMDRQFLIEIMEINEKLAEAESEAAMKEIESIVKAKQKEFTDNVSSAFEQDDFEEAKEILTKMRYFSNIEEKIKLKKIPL
# Variants of: B1
# Settings: with hsc20_human HSCB
row,Variant,effect of a mutation on the interaction
1,MGRAVKVLQLFKTLHRTRQQVFKNNARALEAARIKINEEFKNNKSETSSKKIEELMKIGSDVELLLRTSVIQGIHTDHNTLKLVPRKDLLVENVPYCDAPTQKQ [D25N],with no effect
2,MGRAVKVLQAAATLHRTRQQVFKNDARALEAARIKINEEFKNNKSETSSKKIEELMKIGSDVELLLRTSVIQGIHTDHNTLKLVPRKDLLVENVPYCDAPTQKQ [L10A;F11A;K12A],disrupting interaction strength
3,MGRAVKVLQLFKTLHRTRQQAAANDARALEAARIKINEEFKNNKSETSSKKIEELMKIGSDVELLLRTSVIQGIHTDHNTLKLVPRKDLLVENVPYCDAPTQKQ [V21A;F22A;K23A],with no effect
